The text below walks through data of publication PMC4063868.

The test concerns the target histones (chicken (endogenous in LMH)). In words: high-salt co-extraction with histones from chromatin; LMH cells 48 h post-transfection; chromatin pelleted and incubated in 50 mM Tris-HCl pH 8.0, 2.5 M NaCl, 0,05% NP40 for 30 min at 4°C; supernatant (histones fraction) on 10% SDS-PAGE, colloidal coomassie blue and immunoblot with anti-VP22 L13a. (Immunoblotting shows a protein as a band on a membrane.)

For the substance “VP22 of Marek's disease virus tagged with eGFP at its C-terminus (natural protein)”, the fold less VP22 in the histone extract than from peGFP-UL49 cells was 4.5 fold.
